What was measured:
Conditions in all cases: modification not given
[1] = molecular target: MDM2 (synMDM2) 25-109 (Homo sapiens), Q00987; assay: SPR
[2] = molecular target: T1, MDMX (synMDMX) 24-108 (Homo sapiens), O15151; assay: SPR
T1 chain: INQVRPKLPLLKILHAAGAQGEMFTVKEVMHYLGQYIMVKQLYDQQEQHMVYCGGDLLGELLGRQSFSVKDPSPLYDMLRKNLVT

[3] = molecular target: MDM2 (synMDM2) 25-109 (Homo sapiens), Q00987; assay: SPR; remark: listed apart in the source
[4] = molecular target: MDM2 (synMDM2) 25-109 (Homo sapiens), Q00987; assay: SPR direct

Chain of MDM2 (synMDM2) 25-109 (Homo sapiens), Q00987 (Q00987 25-109): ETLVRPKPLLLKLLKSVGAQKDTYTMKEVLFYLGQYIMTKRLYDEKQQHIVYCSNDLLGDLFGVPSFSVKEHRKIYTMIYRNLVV

**Q.** Which Kd [1] does the source give for CYSFDCLWKCLAMGFSSGKCINSKCKC [stoppin-1] here?
**A.** 790 nM

**Q.** What about the Kd [2] of the same binder?
**A.** 994 nM

**Q.** And the Kd [3]?
**A.** 320 nM

**Q.** For CYSFDCLWKCLAMGFRRGKCRRRKCKC [stoppin-2], which Kd [4] is on record?
**A.** 493 nM

From article PMC3810402
